The chains are these.
B1: Next to BRCA1 gene 1 protein (Homo sapiens), Q14596 (parent)
chain: MEPQVTLNVTFKNEIQSFLVSDPENTTWADIEAMVKVSFDLNTIQIKYLDEENEEVSINSQGEYEEALKMAVKQGNQLQMQVHEGHHVVDEAPPPVVGAKRLAARAGKKPLAHYSSLVRVLGSDMKTPEDPAVQSFPLVPCDTDQPQDKPPDWFTSYLETFREQVVNETVEKLEQKLHEKLVLQNPSLGSCPSEVSMPTSEETLFLPENQFSWHIACNNCQRRIVGVRYQCSLCPSYNICEDCEAGPYGHDTNHVLLKLRRPVVGSSEPFCHSKYSTPRLPAALEQVRLQKQVDKNFLKAEKQRLRAEKKQRKAEVKELKKQLKLHRKIHLWNSIHGLQSPKSPLGRPESLLQSNTLMLPLQPCTSVMPMLSAAFVDENLPDGTHLQPGTKFIKHWRMKNTGNVKWSADTKLKFMWGNLTLASTEKKDVLVPCLKAGHVGVVSVEFIAPALEGTYTSHWRLSHKGQQFGPRVWCSIIVDPFPSEESPDNIEKGMISSSKTDDLTCQQEETFLLAKEERQLGEVTEQTEGTAACIPQKAKNVASERELYIPSVDLLTAQDLLSFELLDINIVQELERVPHNTPVDVTPCMSPLPHDSPLIEKPGLGQIEEENEGAGFKALPDSMVSVKRKAENIASVEEAEEDLSGTQFVCETVIRSLTLDAAPDHNPPCRQKSLQMTFALPEGPLGNEKEEIIHIAEEEAVMEEEEDEEDEEEEDELKDEVQSQSSASSEDYIIILPECFDTSRPLGDSMYSSALSQPGLERGAEGKPGVEAGQEPAEAGERLPGGENQPQEHSISDILTTSQTLETVPLIPEVVELPPSLPRSSPCVHHHGSPGVDLPVTIPEVSSVPDQIRGEPRGSSGLVNSRQKSYDHSRHHHGSSIAGGLVKGALSVAASAYKALFAGPPVTAQPIISEDQTAALMAHLFEMGFCDRQLNLRLLKKHNYNILQVVTELLQLNNNDWYSQRY
B2: Glycogen synthase kinase-3 alpha (Homo sapiens), P49840 (parent)
chain: MSGGGPSGGGPGGSGRARTSSFAEPGGGGGGGGGGPGGSASGPGGTGGGKASVGAMGGGVGASSSGGGPGGSGGGGSGGPGAGTSFPPPGVKLGRDSGKVTTVVATLGQGPERSQEVAYTDIKVIGNGSFGVVYQARLAETRELVAIKKVLQDKRFKNRELQIMRKLDHCNIVRLRYFFYSSGEKKDELYLNLVLEYVPETVYRVARHFTKAKLTIPILYVKVYMYQLFRSLAYIHSQGVCHRDIKPQNLLVDPDTAVLKLCDFGSAKQLVRGEPNVSYICSRYYRAPELIFGATDYTSSIDVWSAGCVLAELLLGQPIFPGDSGVDQLVEIIKVLGTPTREQIREMNPNYTEFKFPQIKAHPWTKVFKSRTPPEAIALCSSLLEYTPSSRLSPLEACAHSFFDELRCLGTQLPNNRPLPPLFNFSAGELSIQPSLNAILIPPHLRSPAGTTTLTPSSQALTETPTSSDWQSTDATPTLTNSS
partner: B1 chain

One assay covers variants of B1. As to conditions: with ubc_human UBC.
As for T586A;S590A, the “effect of a mutation on the interaction” value is recorded as “with no effect”.
With T586E;S590E, the “effect of a mutation on the interaction” value is reported as “with no effect”.

In the next assay the parent is B1. As to conditions: with mlp3b_human MAP1LC3B.
In the case of T586A;S590A, the “effect of a mutation on the interaction” value is on record as “with no effect”.
Same read-out and setting: then T586E;S590E, with “with no effect”.

Another assay covers variants of B1. As to conditions: with gbrap_human GABARAP.
T586A;S590A: the “effect of a mutation on the interaction” value is reported as “with no effect”.
Same read-out and setting: then T586E;S590E, with “with no effect”.

The variants in a further assay derive from B1. The conditions noted are these: with mlp3b_mouse Map1lc3b.
Take T586A;S590A: the “effect of a mutation on the interaction” value is given as “with no effect”.
As for T586E;S590E, the “effect of a mutation on the interaction” value is “with no effect”.

The variants in a further assay derive from B1. The conditions noted are these: with gsk3a_human GSK3A.
For the variant T586A;S590A, the “effect of a mutation on the interaction” value is given as “with no effect”.
On the same count and under the same terms, then T581A;T586A;S590A, with “decreasing interaction strength”.
Regarding S590A, the “effect of a mutation on the interaction” value is “with no effect”.
As for T586A, the “effect of a mutation on the interaction” value is reported as “with no effect”.
Take T581A: the “effect of a mutation on the interaction” value was “decreasing interaction strength”.

The variants in a further assay derive from B1. The conditions noted are these: with gsk3b_human GSK3B.
Consider T581A;T586A;S590A, for which the “effect of a mutation on the interaction” value is “disrupting interaction strength”.
Consider T581A, for which the “effect of a mutation on the interaction” value was “with no effect”.

Variants of B2 are the subject of the next assay. The conditions noted are these: with nbr1_human NBR1, Q14596.
Regarding S21A, the “effect of a mutation on the interaction” value was “with no effect”.
With K148A, the “effect of a mutation on the interaction” value is given as “disrupting interaction strength”.

The values above are taken from IntAct's records for PubMed 24879152.
